{"source": "paper PMC9360543", "origin": "cited, not measured here", "key": {"[1]": {"biological_target": "Integrin αvβ5 (Homo sapiens) (UniProt P06756)", "sequence (P06756 31-992, chain 1 of 2)": "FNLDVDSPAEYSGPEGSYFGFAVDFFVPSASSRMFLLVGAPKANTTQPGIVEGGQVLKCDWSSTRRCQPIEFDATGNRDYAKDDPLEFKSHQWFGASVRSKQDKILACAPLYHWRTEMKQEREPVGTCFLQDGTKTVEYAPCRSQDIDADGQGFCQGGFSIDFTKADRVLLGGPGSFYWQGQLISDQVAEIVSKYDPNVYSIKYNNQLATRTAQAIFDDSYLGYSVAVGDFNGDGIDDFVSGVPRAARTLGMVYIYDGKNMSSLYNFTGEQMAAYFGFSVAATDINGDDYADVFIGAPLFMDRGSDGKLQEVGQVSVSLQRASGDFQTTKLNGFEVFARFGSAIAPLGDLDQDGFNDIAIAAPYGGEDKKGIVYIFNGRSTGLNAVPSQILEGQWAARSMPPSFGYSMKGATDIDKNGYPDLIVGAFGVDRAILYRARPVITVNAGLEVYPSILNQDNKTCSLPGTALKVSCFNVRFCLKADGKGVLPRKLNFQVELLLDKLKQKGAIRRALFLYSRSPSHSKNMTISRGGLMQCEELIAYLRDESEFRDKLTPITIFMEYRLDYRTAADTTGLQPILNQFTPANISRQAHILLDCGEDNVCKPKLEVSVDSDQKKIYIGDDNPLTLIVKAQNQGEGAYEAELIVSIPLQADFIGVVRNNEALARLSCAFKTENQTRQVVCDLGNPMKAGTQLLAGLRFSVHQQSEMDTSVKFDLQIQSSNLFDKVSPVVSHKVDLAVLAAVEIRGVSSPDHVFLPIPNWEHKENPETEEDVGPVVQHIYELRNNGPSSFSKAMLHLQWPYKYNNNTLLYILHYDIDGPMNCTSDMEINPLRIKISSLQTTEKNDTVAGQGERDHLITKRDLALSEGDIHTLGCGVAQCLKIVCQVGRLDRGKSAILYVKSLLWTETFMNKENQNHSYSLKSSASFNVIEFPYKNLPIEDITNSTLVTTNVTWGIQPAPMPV", "sequence (P18084 24-719, chain 2 of 2, further chain)": "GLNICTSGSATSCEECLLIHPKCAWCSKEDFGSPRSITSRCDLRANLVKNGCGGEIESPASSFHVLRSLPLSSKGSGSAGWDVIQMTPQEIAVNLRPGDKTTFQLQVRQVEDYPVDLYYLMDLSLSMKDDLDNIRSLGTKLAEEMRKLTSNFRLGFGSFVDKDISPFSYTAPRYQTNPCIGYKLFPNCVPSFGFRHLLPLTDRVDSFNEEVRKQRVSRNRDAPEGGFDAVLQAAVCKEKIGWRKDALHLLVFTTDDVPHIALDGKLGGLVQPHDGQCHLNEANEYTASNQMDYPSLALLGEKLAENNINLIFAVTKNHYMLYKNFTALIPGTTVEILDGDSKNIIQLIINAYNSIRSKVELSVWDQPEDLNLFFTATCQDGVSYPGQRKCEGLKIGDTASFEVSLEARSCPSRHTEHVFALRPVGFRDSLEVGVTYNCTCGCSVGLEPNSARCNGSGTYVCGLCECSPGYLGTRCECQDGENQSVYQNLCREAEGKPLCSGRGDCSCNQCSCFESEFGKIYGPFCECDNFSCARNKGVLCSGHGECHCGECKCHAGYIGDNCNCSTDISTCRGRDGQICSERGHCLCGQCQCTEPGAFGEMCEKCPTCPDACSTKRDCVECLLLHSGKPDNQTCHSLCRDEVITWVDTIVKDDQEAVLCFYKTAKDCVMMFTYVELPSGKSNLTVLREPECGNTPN", "assay": "solid-phase ELISA-based binding assay"}, "GRP78 (Homo sapiens)": {"biological_target": "GRP78 (Homo sapiens) (UniProt P11021)", "sequence (P11021 19-654)": "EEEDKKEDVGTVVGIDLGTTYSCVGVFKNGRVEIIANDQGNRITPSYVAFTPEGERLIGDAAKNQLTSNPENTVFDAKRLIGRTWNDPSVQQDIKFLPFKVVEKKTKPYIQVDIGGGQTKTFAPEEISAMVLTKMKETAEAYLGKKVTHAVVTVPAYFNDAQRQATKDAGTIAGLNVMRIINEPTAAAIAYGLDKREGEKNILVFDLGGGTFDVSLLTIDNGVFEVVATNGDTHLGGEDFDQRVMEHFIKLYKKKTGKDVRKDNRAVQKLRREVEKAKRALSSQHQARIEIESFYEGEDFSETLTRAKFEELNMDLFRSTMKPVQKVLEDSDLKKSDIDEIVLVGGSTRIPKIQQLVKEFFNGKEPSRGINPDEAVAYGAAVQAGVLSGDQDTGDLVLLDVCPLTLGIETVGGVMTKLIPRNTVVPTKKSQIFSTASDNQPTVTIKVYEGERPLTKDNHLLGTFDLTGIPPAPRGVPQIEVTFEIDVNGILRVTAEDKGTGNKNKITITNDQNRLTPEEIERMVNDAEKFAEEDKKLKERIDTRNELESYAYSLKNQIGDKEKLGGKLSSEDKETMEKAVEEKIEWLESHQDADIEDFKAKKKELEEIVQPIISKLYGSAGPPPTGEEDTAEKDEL"}}, "data": [{"substance": "Isthmin-1 (from UniProt B1AKI9)", "values": [{"measurement": "Kd", "setting": "[1]", "result": 40, "unit": "µM"}, {"measurement": "Kd", "setting": "GRP78 (Homo sapiens)", "result": 0.00858, "unit": "µM"}]}]}
